From US20250059278A1 (SICHUAN HUIYU PHARMACEUTICAL, published 2025)

Columns and labels:
[1] = target: T1, Human CD3εγ recombinant antigen (acrobiosystems, Cat. No. CDG-H52W5) (human, UniProt P07766 23-126; P09693 23-116); assay: SPR chip (Carterra), antibody captured, antigen in flow;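 also: antibodies captured through anti-human IgG Fc at roughly 1000 RU, kinetic constants fitted with a 1:1 binding model in Carterra analysis software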
T1 construct: Bought recombinant protein
Procedure: Antibodies at three concentrations of 4, 2, and 1 μg/mL were immobilized on the HC200M chip containing anti-human IgG Fc secondary antibody (Xantec, Cat. No.: HC200M), and the antibody binding amount was controlled to approximately 1000RU. […] The kinetic constants were obtained by fitting using the 1:1 binding model of Kinetics software from Carterra.

[2] = target: T2, Monkey CD3 on cynomolgus HSC-F cells (cynomolgus monkey, UniProt Q95LI5 22-198; Q95LI7 23-181; Q95LI8 22-171); assay: flow cytometry on HSC-F cells
T2 construct: whole, on cells; also called Monkey CD3-expressing cynomolgus HSC-F cells; cynomolgus monkey CD3-expressing HSC-F cells

[3] = target: T3, Human CD3 on Jurkat cells (human, UniProt P07766 23-207; P09693 23-182; P04234 22-171); assay: flow cytometry on Jurkat cells
T3 construct: whole, on cells; also called Human CD3-expressing Jurkat cells; Jurkat (naturally expressing human CD3)

Row | Kd [1] | koff [1] | kon [1] | EC50 [2] | EC50 [3] | Binder
1 | 1.93 nM | 0.00768 s⁻¹ | 3.97e+06 M⁻¹ s⁻¹ | 0.162 nM | 0.27 nM | CD3 monoclonal antibody M12 (antibody, human IgG1, lambda, V domains shown, IgG: VH12 + IgG1 mutant CH, VL-1 + CL) VH: EVQLVESGGGLVQPGGSLRLSCAASGFTFNTYAMNWVRQAPGKGLEWVARIRSKYNNYATYYADSVKGRFTISRDDSKSSLYLQMNNLKTEDTAMYYCVRHSNFPNSYVSWFAYWGQGTLVTVSS VL: not shown
2 | 3.71 nM | 0.00649 s⁻¹ | 1.75e+06 M⁻¹ s⁻¹ | 1.23 nM | 41.6 nM | CD3 monoclonal antibody M21 (antibody, human IgG1, lambda, V domains shown, IgG: VH21 + IgG1 mutant CH, VL-1 + CL) VH: EVQLVESGGGLVQPGGSLRLSCAASGFTFNTYAMNWVRQAPGKGLEWVARIRSKYNNYATYYADSVKGRFTISRDDSKSSLYLQMNSLKTEDTAMYYCVRHSNFGNTYVSWFAYWGQGTLVTVSS VL: not shown
3 | 179 nM | – | – | 0.841 nM | 0.515 nM | CD3 monoclonal antibody M18 (antibody, human IgG1, lambda, V domains shown, IgG: VH18 + IgG1 mutant CH, VL-1 + CL) VH: EVQLVESGGGLVQPGGSLRLSCAASGFTFNTYAMNWVRQAPGKGLEWVARIRSKYNNYATYYADSVKDRFTISRDDSKSSLYLQMNSLKTEDTAMYYCVRAGNFGNSYVNWFAYWGQGTLVTVSS VL: not shown
4 | 1.57 nM | 0.00256 s⁻¹ | 1.63e+06 M⁻¹ s⁻¹ | 0.238 nM | 0.19 nM | CD3 monoclonal antibody M19 (antibody, human IgG1, lambda, V domains shown, IgG: VH19 + IgG1 mutant CH, VL-1 + CL) VH: EVQLVESGGGLVQPGGSLRLSCAASGFTFNTYAMNWVRQAPGKGLEWVARIRSKYNNYATYYADSVKDRFTISRDDSKSILYLQMNSLKTEDTAVYYCVRHGNFGNSAVSWFQYWGQGTLVTVSS VL: not shown
5 | 160 nM | – | – | 0.118 nM | 0.166 nM | CD3 monoclonal antibody M15 (antibody, human IgG1, lambda, V domains shown, IgG: VH15 + IgG1 mutant CH, VL-1 + CL) VH: EVQLVESGGGLVQPGGSLRLSCAASGFTFNTYAMNWVRQAPGKGLEWVARIRSKYNNYATYYADSVKDRFTISRDDSKSSLYLQMNSLKTEDTAMYYCVRHGDPGNSYVSWFAYWGQGTLVTVSS VL: not shown
6 | 1.69 nM | 0.0109 s⁻¹ | 6.46e+06 M⁻¹ s⁻¹ | 0.109 nM | 0.198 nM | CD3 monoclonal antibody M36 (antibody, human IgG1, lambda, V domains shown, IgG: VH36 + IgG1 mutant CH, VL-1 + CL) VH: EVQLVESGGGLVQPGGSLRLSCAASGFTFNTYAMNWVRQAPGKGLEWVARIRSKYNNYATYYADSVKDRFTISRDDSKSSLYLQMNSLKTEDTAMYYCVRHSNFPNSYVSWFAYWGQGTLVTVSS VL: not shown
7 | 3.33 nM | 0.00222 s⁻¹ | 666000 M⁻¹ s⁻¹ | 2.31 nM | 2.55 nM | CD3 monoclonal antibody M22 (antibody, human IgG1, lambda, V domains shown, IgG: VH22 + IgG1 mutant CH, VL-1 + CL) VH: EVQLVESGGGLVQPGGSLRLSCAASGFTFNTYAMNWVRQAPGKGLEWVARIRSKYNNYATYYADSVKGRFTISRDDSKSILYLQMNSLKTEDTAMYYCVRHERFGNSYVSWFAYWGQGTLVTVSS VL: not shown
8 | 2.56 nM | 0.00232 s⁻¹ | 908000 M⁻¹ s⁻¹ | 6.58 nM | 61.7 nM | CD3 monoclonal antibody M20 (antibody, human IgG1, lambda, V domains shown, IgG: VH20 + IgG1 mutant CH, VL-1 + CL) VH: EVQLVESGGGLVQPGGSLRLSCAASGFTFNTYAMNWVRQAPGKGLEWVARIRSKYNNYATYYADSVKDRFTISRDDSKSSLYLQMNSLKTEDTAVYYCVRHGNFGNSYVSWFQYWGQGTLVTVSS VL: not shown
9 | 2.44 nM | 0.0028 s⁻¹ | 1.15e+06 M⁻¹ s⁻¹ | 0.165 nM | 0.403 nM | CD3 monoclonal antibody M27 (antibody, human IgG1, lambda, V domains shown, IgG: VH27 + IgG1 mutant CH, VL-1 + CL) VH: EVQLVESGGGLVQPGGSLRLSCAASGFTFNTYAMNWVRQAPGKGLEWVARIRSKYNNYATYYADSVKGRFTISRDDSKSILYLQMNSLKTEDTAMYYCVRHANFGNSYVSWFASWGQGTLVTVSS VL: not shown
10 | 5.88 nM | 0.00776 s⁻¹ | 1.32e+06 M⁻¹ s⁻¹ | 0.272 nM | 0.412 nM | CD3 monoclonal antibody M29 (antibody, human IgG1, lambda, V domains shown, IgG: VH29 + IgG1 mutant CH, VL-1 + CL) VH: EVQLVESGGGLVQPGGSLRLSCAASGFTFNTYAMNWVRQAPGKGLEWVARIRSKYNNYATYYADSVKGRFTISRDDSKSILYLQMNSLKTEDTAMYYCVRHGNFPMSYVSWFAYWGQGTLVTVSS VL: not shown
11 | 7.22 nM | 0.0034 s⁻¹ | 471000 M⁻¹ s⁻¹ | 0.266 nM | 2.58 nM | CD3 monoclonal antibody M34 (antibody, human IgG1, lambda, V domains shown, IgG: VH34 + IgG1 mutant CH, VL-1 + CL) VH: EVQLVESGGGLVQPGGSLRLSCAASGFTFNTYAMNWVRQAPGKGLEWVARIRSKYNNYATYYADSVKGRFTISRDDSKSSLYLQMNNLKTEDTAVYYCVRHGNFKQSYVSWFAYWGQGTLVTVSS VL: not shown
12 | 0.43 nM | 0.00126 s⁻¹ | 2.92e+06 M⁻¹ s⁻¹ | 0.154 nM | 1.56 nM | CD3 monoclonal antibody M31 (antibody, human IgG1, lambda, V domains shown, IgG: VH31 + IgG1 mutant CH, VL-1 + CL) VH: EVQLVESGGGLVQPGGSLRLSCAASGFTFNTYAMNWVRQAPGKGLEWVARIRSKYNNYATYYADSVKGRFTISRDDSKSILYLQMNNLKTEDTAVYYCVRHSNFGNSYVSWFEYWGQGTLVTVSS VL: not shown
13 | 0.842 nM | 0.00283 s⁻¹ | 3.36e+06 M⁻¹ s⁻¹ | 0.207 nM | 0.792 nM | CD3 monoclonal antibody M35 (antibody, human IgG1, lambda, V domains shown, IgG: VH35 + IgG1 mutant CH, VL-1 + CL) VH: EVQLVESGGGLVQPGGSLRLSCAASGFTFNTYAMNWVRQAPGKGLEWVARIRSKYNNYATYYADSVKDRFTISRDDSKSSLYLQMNNLKTEDTAVYYCVRHSNFGNSYVSWWAYWGQGTLVTVSS VL: not shown
14 | 2.02 nM | 0.00188 s⁻¹ | 929000 M⁻¹ s⁻¹ | 0.162 nM | 0.477 nM | CD3 monoclonal antibody M16 (antibody, human IgG1, lambda, V domains shown, IgG: VH16 + IgG1 mutant CH, VL-1 + CL) VH: EVQLVESGGGLVQPGGSLRLSCAASGFTFNTYAMNWVRQAPGKGLEWVARIRSKYNNYATYYADSVKGRFTISRDDSKSILYLQMNSLKTEDTAVYYCVRHGNFGNSYVSWFQYWGQGTLVTVSS VL: not shown
15 | 1.06 nM | 0.00358 s⁻¹ | 3.38e+06 M⁻¹ s⁻¹ | 0.12 nM | 1.32 nM | CD3 monoclonal antibody M24 (antibody, human IgG1, lambda, V domains shown, IgG: VH24 + IgG1 mutant CH, VL-1 + CL) VH: EVQLVESGGGLVQPGGSLRLSCAASGFTFNTYAMNWVRQAPGKGLEWVARIRSKYNNYATYYADSVKGRFTISRDDSKSILYLQMNSLKTEDTAVYYCVRHSNFGRSYVSWFAYWGQGTLVTVSS VL: not shown
16 | 2.93 nM | 0.00234 s⁻¹ | 798000 M⁻¹ s⁻¹ | 0.347 nM | 0.302 nM | CD3 monoclonal antibody M30 (antibody, human IgG1, lambda, V domains shown, IgG: VH30 + IgG1 mutant CH, VL-1 + CL) VH: EVQLVESGGGLVQPGGSLRLSCAASGFTFNTYAMNWVRQAPGKGLEWVARIRSKYNNYATYYADSVKDRFTISRDDSKSILYLQMNSLKTEDTAMYYCVRHSNFGNGYVSWFAYWGQGTLVTVSS VL: not shown
17 | 2.52 nM | 0.00108 s⁻¹ | 429000 M⁻¹ s⁻¹ | 0.21 nM | 0.181 nM | CD3 monoclonal antibody M17 (antibody, human IgG1, lambda, V domains shown, IgG: VH17 + IgG1 mutant CH, VL-1 + CL) VH: EVQLVESGGGLVQPGGSLRLSCAASGFTFNTYAMNWVRQAPGKGLEWVARIRSKYNNYATYYADSVKDRFTISRDDSKSILYLQMNSLKTEDTAMYYCVRHGNFWNSYVSWFASWGQGTLVTVSS VL: not shown
18 | 3.33 nM | 0.00045 s⁻¹ | 135000 M⁻¹ s⁻¹ | 0.276 nM | 0.832 nM | CD3 monoclonal antibody M13 (antibody, human IgG1, lambda, V domains shown, IgG: VH13 + IgG1 mutant CH, VL-1 + CL) VH: EVQLVESGGGLVQPGGSLRLSCAASGFTFNTYAMNWVRQAPGKGLEWVARIRSKYNNYATYYADSVKGRFTISRDDSKSSLYLQMNSLKTEDTAVYYCVRHGNFKNSYGSWFAYWGQGTLVTVSS VL: not shown
19 | 5.27 nM | 0.0048 s⁻¹ | 910000 M⁻¹ s⁻¹ | 0.111 nM | 0.0954 nM | CD3 monoclonal antibody M25 (antibody, human IgG1, lambda, V domains shown, IgG: VH25 + IgG1 mutant CH, VL-1 + CL) VH: EVQLVESGGGLVQPGGSLRLSCAASGFTFNTYAMNWVRQAPGKGLEWVARIRSKYNNYATYYADSVKDRFTISRDDSKSILYLQMNSLKTEDTAMYYCVRHGNFGNSRVSWFAYWGQGTLVTVSS VL: not shown
20 | 0.624 nM | 0.00128 s⁻¹ | 2.05e+06 M⁻¹ s⁻¹ | 0.271 nM | 1.51 nM | CD3 monoclonal antibody M14 (antibody, human IgG1, lambda, V domains shown, IgG: VH14 + IgG1 mutant CH, VL-1 + CL) VH: EVQLVESGGGLVQPGGSLRLSCAASGFTFNTYAMNWVRQAPGKGLEWVARIRSKYNNYATYYADSVKDRFTISRDDSKSSLYLQMNSLKTEDTAMYYCVRHSNFGNSYVSWFEYWGQGTLVTVSS VL: not shown
21 | 1.57 nM | 0.00549 s⁻¹ | 3.5e+06 M⁻¹ s⁻¹ | 0.164 nM | 0.186 nM | CD3 monoclonal antibody M23 (antibody, human IgG1, lambda, V domains shown, IgG: VH23 + IgG1 mutant CH, VL-1 + CL) VH: EVQLVESGGGLVQPGGSLRLSCAASGFTFNTYAMNWVRQAPGKGLEWVARIRSKYNNYATYYADSVKGRFTISRDDSKSILYLQMNSLKTEDTAMYYCVRHSNFLNSYVSWFAYWGQGTLVTVSS VL: not shown
22 | 3.51 nM | 0.00543 s⁻¹ | 1.55e+06 M⁻¹ s⁻¹ | 0.223 nM | 0.235 nM | CD3 monoclonal antibody M26 (antibody, human IgG1, lambda, V domains shown, IgG: VH26 + IgG1 mutant CH, VL-1 + CL) VH: EVQLVESGGGLVQPGGSLRLSCAASGFTFNTYAMNWVRQAPGKGLEWVARIRSKYNNYATYYADSVKDRFTISRDDSKSILYLQMNNLKTEDTAMYYCVRHGNFGNSQVSWFQYWGQGTLVTVSS VL: not shown
23 | 19.3 nM | 0.0054 s⁻¹ | 280000 M⁻¹ s⁻¹ | 1.55 nM | 4.92 nM | CD3 monoclonal antibody M33 (antibody, human IgG1, lambda, V domains shown, IgG: VH33 + IgG1 mutant CH, VL-1 + CL) VH: EVQLVESGGGLVQPGGSLRLSCAASGFTFNTYAMNWVRQAPGKGLEWVARIRSKYNNYATYYADSVKGRFTISRDDSKSSLYLQMNSLKTEDTAVYYCVRHGNFGNNYVSWFASWGQGTLVTVSS VL: not shown
24 | 4.37 nM | 0.0133 s⁻¹ | 3.05e+06 M⁻¹ s⁻¹ | 0.0667 nM | 0.188 nM | CD3 monoclonal antibody M32 (antibody, human IgG1, lambda, V domains shown, IgG: VH32 + IgG1 mutant CH, VL-1 + CL) VH: EVQLVESGGGLVQPGGSLRLSCAASGFTFNTYAMNWVRQAPGKGLEWVARIRSKYNNYATYYADSVKGRFTISRDDSKSSLYLQMNSLKTEDTAVYYCVRHSNFGNSRVSWFAYWGQGTLVTVSS VL: not shown
